B1: Refmab #3 (antibody, V domains shown)
VH: QVQLVQSGAEVKKPGSSVKVSCKASGYTFTDYNMHWVRQAPGQGLEWIGYIYPYNGGTGYNQKFKSKATITADESTNTAYMELSSLRSEDTAVYYCARGRPAMDYWGQGTLVTVSS
VL: DIQMTQSPSSLSASVGDRVTITCRASESVDNYGISFMNWFQQKPGKAPKLLIYAASNQGSGVPSRFSGSGSGTDFTLTISSLQPDDFATYYCQQSKEVPWTFGQGTKVEIK
notes: Full-length format is human IgG1 Fc silent (PG-LALA); The alanine scan used IgG or Fab
B2: Refmab #4 (antibody, V domains shown)
VH: QVQLVQSGAEVKKPGESVKVSCKASGYTFTNYGMNWVKQAPGQGLEWMGWINTYTGEPTYADKFQGRVTMTTDTSTSTAYMEIRNLGGDDTAVYYCARWSWSDGYYVYFDYWGQGTSVTVSS
VL: DIVMTQSPDSLTVSLGERTTINCKSSQSVLDSSTNKNSLAWYQQKPGQPPKLLLSWASTRESGIPDRFSGSGSGTDFTLTIDSPQPEDSATYYCQQSAHFPITFGQGTRLEIK
notes: as for B1

Key:
Assay in all cases: alanine scan, flow cytometry;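 also: HEK293-T cells transiently expressing single-residue alanine mutants of CD33 (alanine swapped to serine), antibody binding read by fluorescence in duplicate, background-subtracted, expressed relative to wild-type CD33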
human CD33 P48A = human CD33 P48A (human, UniProt P20138 18-364)
Sequence of human CD33 P48A (P20138 18-364 P48A limits assumed): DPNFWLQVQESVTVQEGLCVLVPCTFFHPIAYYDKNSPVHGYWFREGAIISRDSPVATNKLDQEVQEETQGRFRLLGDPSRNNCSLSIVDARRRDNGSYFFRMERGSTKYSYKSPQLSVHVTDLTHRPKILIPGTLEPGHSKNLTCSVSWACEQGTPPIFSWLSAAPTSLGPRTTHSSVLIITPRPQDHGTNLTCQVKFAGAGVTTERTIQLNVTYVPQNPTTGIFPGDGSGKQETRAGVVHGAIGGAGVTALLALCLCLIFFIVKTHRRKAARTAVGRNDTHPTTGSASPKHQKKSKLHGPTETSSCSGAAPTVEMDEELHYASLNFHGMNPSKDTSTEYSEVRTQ

human CD33 N76A = human CD33 N76A (human, UniProt P20138 18-364)
Sequence of human CD33 N76A (P20138 18-364 N76A limits assumed): as the sequence (P20138 18-364 P48A limits assumed) above, with A31P, N59A counted along it

human CD33 Y50A = human CD33 Y50A (human, UniProt P20138 18-364)
Sequence of human CD33 Y50A (P20138 18-364 Y50A limits assumed): as the sequence (P20138 18-364 P48A limits assumed) above, with A31P, Y33A counted along it

human CD33 Q32A = human CD33 Q32A (human, UniProt P20138 18-364)
Sequence of human CD33 Q32A (P20138 18-364 Q32A limits assumed): as the sequence (P20138 18-364 P48A limits assumed) above, with Q15A, A31P counted along it

human CD33 E63A = human CD33 E63A (human, UniProt P20138 18-364)
Sequence of human CD33 E63A (P20138 18-364 E63A limits assumed): as the sequence (P20138 18-364 P48A limits assumed) above, with A31P, E46A counted along it

human CD33 S71A = human CD33 S71A (human, UniProt P20138 18-364)
Sequence of human CD33 S71A (P20138 18-364 S71A limits assumed): as the sequence (P20138 18-364 P48A limits assumed) above, with A31P, S54A counted along it

human CD33 P72A = human CD33 P72A (human, UniProt P20138 18-364)
Sequence of human CD33 P72A (P20138 18-364 P72A limits assumed): as the sequence (P20138 18-364 P48A limits assumed) above, with A31P, P55A counted along it

human CD33 C36A = human CD33 C36A (human, UniProt P20138 18-364)
Sequence of human CD33 C36A (P20138 18-364 C36A limits assumed): as the sequence (P20138 18-364 P48A limits assumed) above, with C19A, A31P counted along it

human CD33 L23A = human CD33 L23A (human, UniProt P20138 18-364)
Sequence of human CD33 L23A (P20138 18-364 L23A limits assumed): as the sequence (P20138 18-364 P48A limits assumed) above, with L6A, A31P counted along it

human CD33 R91A = human CD33 R91A (human, UniProt P20138 18-364)
Sequence of human CD33 R91A (P20138 18-364 R91A limits assumed): as the sequence (P20138 18-364 P48A limits assumed) above, with A31P, R74A counted along it

human CD33 D70A = human CD33 D70A (human, UniProt P20138 18-364)
Sequence of human CD33 D70A (P20138 18-364 D70A limits assumed): as the sequence (P20138 18-364 P48A limits assumed) above, with A31P, D53A counted along it

human CD33 H45A = human CD33 H45A (human, UniProt P20138 18-364)
Sequence of human CD33 H45A (P20138 18-364 H45A limits assumed): as the sequence (P20138 18-364 P48A limits assumed) above, with H28A, A31P counted along it

human CD33 A65S = human CD33 A65S (human, UniProt P20138 18-364)
Sequence of human CD33 A65S (P20138 18-364 A65S limits assumed): as the sequence (P20138 18-364 P48A limits assumed) above, with A31P, A48S counted along it

human CD33 S54A = human CD33 S54A (human, UniProt P20138 18-364)
Sequence of human CD33 S54A (P20138 18-364 S54A limits assumed): as the sequence (P20138 18-364 P48A limits assumed) above, with A31P, S37A counted along it

human CD33 P55A = human CD33 P55A (human, UniProt P20138 18-364)
Sequence of human CD33 P55A (P20138 18-364 P55A limits assumed): as the sequence (P20138 18-364 P48A limits assumed) above, with A31P, P38A counted along it

human CD33 E33A = human CD33 E33A (human, UniProt P20138 18-364)
Sequence of human CD33 E33A (P20138 18-364 E33A limits assumed): as the sequence (P20138 18-364 P48A limits assumed) above, with E16A, A31P counted along it

human CD33 S28A = human CD33 S28A (human, UniProt P20138 18-364)
Sequence of human CD33 S28A (P20138 18-364 S28A limits assumed): as the sequence (P20138 18-364 P48A limits assumed) above, with S11A, A31P counted along it

human CD33 Q87A = human CD33 Q87A (human, UniProt P20138 18-364)
Sequence of human CD33 Q87A (P20138 18-364 Q87A limits assumed): as the sequence (P20138 18-364 P48A limits assumed) above, with A31P, Q70A counted along it

human CD33 Y59A = human CD33 Y59A (human, UniProt P20138 18-364)
Sequence of human CD33 Y59A (P20138 18-364 Y59A limits assumed): as the sequence (P20138 18-364 P48A limits assumed) above, with A31P, Y42A counted along it

human CD33 G58A = human CD33 G58A (human, UniProt P20138 18-364)
Sequence of human CD33 G58A (P20138 18-364 G58A limits assumed): as the sequence (P20138 18-364 P48A limits assumed) above, with A31P, G41A counted along it

human CD33 W60A = human CD33 W60A (human, UniProt P20138 18-364)
Sequence of human CD33 W60A (P20138 18-364 W60A limits assumed): as the sequence (P20138 18-364 P48A limits assumed) above, with A31P, W43A counted along it

human CD33 Q83A = human CD33 Q83A (human, UniProt P20138 18-364)
Sequence of human CD33 Q83A (P20138 18-364 Q83A limits assumed): as the sequence (P20138 18-364 P48A limits assumed) above, with A31P, Q66A counted along it

human CD33 E27A = human CD33 E27A (human, UniProt P20138 18-364)
Sequence of human CD33 E27A (P20138 18-364 E27A limits assumed): as the sequence (P20138 18-364 P48A limits assumed) above, with E10A, A31P counted along it

human CD33 D79A = human CD33 D79A (human, UniProt P20138 18-364)
Sequence of human CD33 D79A (P20138 18-364 D79A limits assumed): as the sequence (P20138 18-364 P48A limits assumed) above, with A31P, D62A counted along it

human CD33 P40A = human CD33 P40A (human, UniProt P20138 18-364)
Sequence of human CD33 P40A (P20138 18-364 P40A limits assumed): as the sequence (P20138 18-364 P48A limits assumed) above, with P23A, A31P counted along it

human CD33 F21A = human CD33 F21A (human, UniProt P20138 18-364)
Sequence of human CD33 F21A (P20138 18-364 F21A limits assumed): as the sequence (P20138 18-364 P48A limits assumed) above, with F4A, A31P counted along it

human CD33 Q26A = human CD33 Q26A (human, UniProt P20138 18-364)
Sequence of human CD33 Q26A (P20138 18-364 Q26A limits assumed): as the sequence (P20138 18-364 P48A limits assumed) above, with Q9A, A31P counted along it

human CD33 P19A = human CD33 P19A (human, UniProt P20138 18-364)
Sequence of human CD33 P19A (P20138 18-364 P19A limits assumed): as the sequence (P20138 18-364 P48A limits assumed) above, with P2A, A31P counted along it

Row | Binder | Mean % WT Binding (human CD33 P48A) [% WT] | Mean % WT Binding (human CD33 N76A) [% WT] | Mean % WT Binding (human CD33 Y50A) [% WT] | Mean % WT Binding (human CD33 Q32A) [% WT] | Mean % WT Binding (human CD33 E63A) [% WT] | Mean % WT Binding (human CD33 S71A) [% WT] | Mean % WT Binding (human CD33 P72A) [% WT] | Mean % WT Binding (human CD33 C36A) [% WT] | Mean % WT Binding (human CD33 L23A) [% WT] | Mean % WT Binding (human CD33 R91A) [% WT] | Mean % WT Binding (human CD33 D70A) [% WT] | Mean % WT Binding (human CD33 H45A) [% WT] | Mean % WT Binding (human CD33 A65S) [% WT] | Mean % WT Binding (human CD33 S54A) [% WT] | Mean % WT Binding (human CD33 P55A) [% WT] | Mean % WT Binding (human CD33 E33A) [% WT] | Mean % WT Binding (human CD33 S28A) [% WT] | Mean % WT Binding (human CD33 Q87A) [% WT] | Mean % WT Binding (human CD33 Y59A) [% WT] | Mean % WT Binding (human CD33 G58A) [% WT] | further results
1 | B1 | 167 | 148 | 109 | 133 | 124 | 118 | 108 | 102 | 91.5 | 150 | 131 | 55.1 | 143 | 106 | 142 | 94.9 | 193 | 161 | 145 | 87.4 | Mean % WT Binding (human CD33 W60A): 28.3 % WT; Mean % WT Binding (human CD33 Q83A): 103 % WT; Mean % WT Binding (human CD33 E27A): 153 % WT; Mean % WT Binding (human CD33 D79A): 105 % WT; Mean % WT Binding (human CD33 P40A): 122 % WT; Mean % WT Binding (human CD33 F21A): 13.6 % WT; Mean % WT Binding (human CD33 Q26A): 124 % WT; Mean % WT Binding (human CD33 P19A): 75.2 % WT
2 | B2 | 8.4 | 34.7 | 3.5 | 83 | 84.1 | 99.4 | 94.6 | 108 | 23.7 | 100 | 82.7 | 134 | 84 | 99.9 | 95.4 | 87.1 | 79.9 | 94.2 | 97.6 | 62.2 | Mean % WT Binding (human CD33 W60A): 1 % WT; Mean % WT Binding (human CD33 Q83A): 104 % WT; Mean % WT Binding (human CD33 E27A): 42.9 % WT; Mean % WT Binding (human CD33 D79A): 74.5 % WT; Mean % WT Binding (human CD33 P40A): 43 % WT; Mean % WT Binding (human CD33 F21A): 43.6 % WT; Mean % WT Binding (human CD33 Q26A): 63.1 % WT; Mean % WT Binding (human CD33 P19A): 20.4 % WT

From US20260242735A1 (UNIVERSIT T BASEL, published 2026)
